Non-standard residues stand in square brackets, D forms with d. No end group written: not given here. *: point of attachment. Desaminotyrosyl = O=C(CCc1ccc(O)cc1)*; NMeY = CN[C@@H](Cc1ccc(O)cc1)C(=O)O; Agmatine = N=C(N)NCCCCN*; Nle = CCCC[C@H](N)C(=O)O; Orn = NCCC[C@H](N)C(=O)O; Abu = CC[C@H](N)C(=O)O
T1: GHRH receptor of human pituitary membranes (human, UniProt Q02643)
T1 sequence: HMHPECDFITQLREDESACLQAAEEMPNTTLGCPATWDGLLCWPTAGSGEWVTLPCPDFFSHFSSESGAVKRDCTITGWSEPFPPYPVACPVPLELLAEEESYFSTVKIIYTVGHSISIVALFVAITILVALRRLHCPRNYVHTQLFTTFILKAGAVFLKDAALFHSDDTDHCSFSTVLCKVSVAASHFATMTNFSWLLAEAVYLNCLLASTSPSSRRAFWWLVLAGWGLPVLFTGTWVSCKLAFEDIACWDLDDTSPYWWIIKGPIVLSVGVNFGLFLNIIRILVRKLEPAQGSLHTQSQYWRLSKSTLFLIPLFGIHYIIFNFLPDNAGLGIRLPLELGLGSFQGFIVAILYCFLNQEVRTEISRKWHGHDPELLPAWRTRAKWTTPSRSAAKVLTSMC


Tests used:
[1] = target: T1, GHRH receptor of human pituitary …; assay: competition vs 125I-JV-1-42, human pituitary membranes;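 also: pituitaries used were normal human glands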
Excerpt: Normal human pituitaries were purchased from the National Hormone and Peptide Program (A.F. Parlow, Los Angeles, County Harbor-UCLA Medical Center, Torrance, Calif.).

[2] = target: T1, GHRH receptor of human pituitary …; assay: competition vs 125I-[His1,Nle27]hGHRH(1-32)NH2, human pituitary membranes
Excerpt: Normal human pituitary was purchased from the National Hormone and Peptide Program (UCLA Medical Center, Torrance, Calif.).

Row | Binder | IC50 [1] [nM] | relative affinity (binding potency) vs JI-38 [1] [vs JI-38=1] | IC50 [2] [nM] | relative affinity (binding potency) compared to JI-38 [2] [vs JI-38=1] | relative affinity (binding potency) compared to hGHRH(1-29) [2]
1 | [NMeY][dA]DAIFTQSYR[Orn]VL[Abu]QLSAR[Orn]LLQDI[Nle]D[Agmatine] [P-20361 [N-Me-Tyr^1, D-Ala^2, Gln^8, Orn^12, Abu^15, Orn^21, Nle^27, Asp^28, Agm^29]hGHRH(1-29)NH2] | 0.82 | 5.3 | 1.19 | 2.3 | 6.42 vs hGHRH(1-29)NH2=1
2 | [NMeY]ADAIFTQSYR[Orn]VL[Abu]QLSAR[Orn]LLQDI[Nle]DR-NHMe [P-27406 [N-Me-Tyr^1, Gln^8, Orn^12, Abu^15, Orn^21, Nle^27, Asp^28]hGHRH(1-29)NH-CH3] | 0.3 | 14.5 |  | 2.95 | 8.22 vs hGHRH(1-29)NH2=1
3 | [Desaminotyrosyl]ADAIFTQSYR[Orn]VL[Abu]QLSAR[Orn]LLQDI[Nle]DR-NHMe (SMILES CCCC[C@H](NC(=O)[C@@H](NC(=O)[C@H](CC(=O)O)NC(=O)[C@H](CCC(N)=O)NC(=O)[C@H](CC(C)C)NC(=O)[C@H](CC(C)C)NC(=O)[C@H](CCCN)NC(=O)[C@H](CCCNC(=N)N)NC(=O)[C@H](C)NC(=O)[C@H](CO)NC(=O)[C@H](CC(C)C)NC(=O)[C@H](CCC(N)=O)NC(=O)[C@H](CC)NC(=O)[C@H](CC(C)C)NC(=O)[C@@H](NC(=O)[C@H](CCCN)NC(=O)[C@H](CCCNC(=N)N)NC(=O)[C@H](Cc1ccc(O)cc1)NC(=O)[C@H](CO)NC(=O)[C@H](CCC(N)=O)NC(=O)[C@@H](NC(=O)[C@H](Cc1ccccc1)NC(=O)[C@@H](NC(=O)[C@H](C)NC(=O)[C@H](CC(=O)O)NC(=O)[C@H](C)NC(=O)CCc1ccc(O)cc1)[C@@H](C)CC)[C@@H](C)O)C(C)C)[C@@H](C)CC)C(=O)N[C@@H](CC(=O)O)C(=O)N[C@@H](CCCNC(=N)N)C(=O)NC) [P-27407 [Dat^1, Gln^8, Orn^12, Abu^15, Orn^21, Nle^27, Asp^28]hGHRH(1-29)NH-CH3] | 3 | 1.45 |  | 0.54 | 1.52 vs hGHRH(1-29)NH2=1
4 | Ac-[NMeY][dA]DAIFTQSYR[Orn]VL[Abu]QLSAR[Orn]LLQDI[Nle]D[Agmatine] (SMILES CCCC[C@H](NC(=O)[C@@H](NC(=O)[C@H](CC(=O)O)NC(=O)[C@H](CCC(N)=O)NC(=O)[C@H](CC(C)C)NC(=O)[C@H](CC(C)C)NC(=O)[C@H](CCCN)NC(=O)[C@H](CCCNC(=N)N)NC(=O)[C@H](C)NC(=O)[C@H](CO)NC(=O)[C@H](CC(C)C)NC(=O)[C@H](CCC(N)=O)NC(=O)[C@H](CC)NC(=O)[C@H](CC(C)C)NC(=O)[C@@H](NC(=O)[C@H](CCCN)NC(=O)[C@H](CCCNC(=N)N)NC(=O)[C@H](Cc1ccc(O)cc1)NC(=O)[C@H](CO)NC(=O)[C@H](CCC(N)=O)NC(=O)[C@@H](NC(=O)[C@H](Cc1ccccc1)NC(=O)[C@@H](NC(=O)[C@H](C)NC(=O)[C@H](CC(=O)O)NC(=O)[C@@H](C)NC(=O)[C@H](Cc1ccc(O)cc1)N(C)C(C)=O)[C@@H](C)CC)[C@@H](C)O)C(C)C)[C@@H](C)CC)C(=O)N[C@@H](CC(=O)O)C(=O)NCCCCNC(=N)N) | 3.44 | 1.26 | 3.87 | 0.71 | 1.98 vs hGHRH(1-29)NH2=1
5 | [NMeY][dA]DAIFTNSYR[Orn]VL[Abu]QLSAR[Orn]LLQDI[Nle]D[Agmatine] [P-20367 [N-Me-Tyr^1, D-Ala^2, Orn^12, Abu^15, Orn^21, Nle^27, Asp^28, Agm^29]hGHRH(1-29)NH2] | 1.7 | 2.56 | 1.09 | 2.51 | 7.01 vs hGHRH(1-29)NH2=1
6 | [NMeY][dA]DAIFTNSYR[Orn]VL[Abu]QLSAR[Orn]LLQDI[Nle]DR-NHMe [P-27409 [N-Me-Tyr^1, D-Ala^2, Orn^12, Abu^15, Orn^21, Nle^27, Asp^28]hGHRH(1-29)NH-CH3] | 1.06 | 4.1 | 1.01 | 2.71 | 7.57 vs hGHRH(1-29)NH2=1
7 | [Desaminotyrosyl][dA]DAIFTQSYR[Orn]VL[Abu]QLSAR[Orn]LLQDI[Nle]D[dR]-NHMe (SMILES CCCC[C@H](NC(=O)[C@@H](NC(=O)[C@H](CC(=O)O)NC(=O)[C@H](CCC(N)=O)NC(=O)[C@H](CC(C)C)NC(=O)[C@H](CC(C)C)NC(=O)[C@H](CCCN)NC(=O)[C@H](CCCNC(=N)N)NC(=O)[C@H](C)NC(=O)[C@H](CO)NC(=O)[C@H](CC(C)C)NC(=O)[C@H](CCC(N)=O)NC(=O)[C@H](CC)NC(=O)[C@H](CC(C)C)NC(=O)[C@@H](NC(=O)[C@H](CCCN)NC(=O)[C@H](CCCNC(=N)N)NC(=O)[C@H](Cc1ccc(O)cc1)NC(=O)[C@H](CO)NC(=O)[C@H](CCC(N)=O)NC(=O)[C@@H](NC(=O)[C@H](Cc1ccccc1)NC(=O)[C@@H](NC(=O)[C@H](C)NC(=O)[C@H](CC(=O)O)NC(=O)[C@@H](C)NC(=O)CCc1ccc(O)cc1)[C@@H](C)CC)[C@@H](C)O)C(C)C)[C@@H](C)CC)C(=O)N[C@@H](CC(=O)O)C(=O)N[C@H](CCCNC(=N)N)C(=O)NC) [P-27401 [Dat^1, D-Ala^2, Gln^8, Orn^12, Abu^15, Orn^21, Nle^27, Asp^28, D-Arg^29]hGHRH(1-29)NH-CH3] | 2.74 | 1.59 | 2.6 | 1.05 | 2.94 vs hGHRH(1-29)NH2=1
